Experimental data published in a protein production outcome set (Wang et al. 2014).

experiment: label from the status in PepcDB records
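Also: failed if final PepcDB status was selected cloned or expressed and not failed if soluble or beyond.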

Row | Sequence | protein production
1 | MSPVLLFILGVVFVAIGVAVSIALHEVGHLVPAKLFKVRVTKYMIGFGPTLWSKKKGETEYGFKALPLGGYVSMIGMYPPNKEDGAVRPSSTGMFQTLATEARSMAHEEVGPGDENRVFYKLPVWKKIIVMLGGPAMNMLIGLILLAVLLMGFGMATATTTIADVSKCQVAAGETVDPDSADCKLTPAAAAGLQPNDTITSFDGKAVTSWDELTSWIRASAGRDVPITVERNGSTVETTVTPVLSSRPVVGADGRPEQDADGVLKYQEVGFLGIGAQSELVPQPASAVLPMAGENIKQISGVIFNLPARVVGVAKAAFSEEPRDPNGPISVVGVGRVAGEVAAMEQVPMQARIGTLIGLLAGLNFALAIFNLIPLLPLDGGHVAGALYEGARRRVAKLLGKPDPGAFDIAKLLPATYVVAALLMAMGALLIYADIVKPVNIFG | failed
2 | MSQANANFLDNSKVSANKTAESGQLKEFRTPPHNLAIEQAVLAALMTVAESFEQVNDLLKENDFYATRHKYIFRAIEKLAQENSPYDAVLVNDWLLKQNLLDAIGGEEYLMQLMADSPSSFYNLETYASKIKEFSTLRSMIKVSSDILQNAYDTKGRPVSEILDLAETSIFSLAEQHNNNKKDAGPKSISSVTADVISKLDELSKLDGNITGLTTGFLELDNKTYGMQSGDMIIVAARPSMGKTTFAMNLVESVLFNCNLPALVFSMEMPADSIAMRLISSYGKVHQGHLRSGKLDGDEWSKVTGTILQLQEKHLYIDDSSALPPTELRARARRIAKQHGGKLGCIMIDYLQLMKVPGMGDNRVGEIGEISRSLKALAKEMDCPVIALSQLNRSLENRPNKRPVMSDLRESGAIEQDADLIMFIYRDEVYNKESKEAGTAEIIIGKQRNGPIGTVRLAFEGQYTRFSNLSPEYYSQYDDEE | failed
3 | MSQDKQMKAVSPLLQRVINISSIVGGVGSLIFCIWAYQAGILQSKETLSAFIQQAGIWGPPLFIFLQILQTVVPIIPGALTSVAGVFIYGHIIGTIYNYIGIVIGCAIIFYLVRLYGAAFVQSVVSKRTYDKYIDWLDKGNRFDRFFIFMMIWPISPADFLCMLAALTKMSFKRYMTIIILTKPFTLVVYTYGLTYIIDFFWQML | failed
4 | MSQETPYIFDARTADFDQSVIENSFHKPVLVDFWAEWCAPCKALMPMLQQIAESYQGELLLAKVNCDIEQDIVARFGIRSLPTVVLFKDGQPVDGFAGAQPESAVRAMLEPHVQMPPPPAADPLEQAEALFAEGRIGDAEALLKVLLGEDNSNAKALILYARCLAERGELGEAQTVLDAVKSDEHKAALAGAKAQITFLKQAADLPDAAELKARLAKDPQDDEALYQLAIQQLARQQYEAALEALLKLFMRNRSYNEGIAHKTLLQVFDLLGNDHPLVTAYRRKLFAALY | failed
5 | MSQFSTVWVLSDVLSPLPELMGGASSLGQSINVFTFNDEQSIAAFKLGATAVFQLEGKPDDRIMEDYAQSIVETIKSHSDAGLVLLPNTRRGKLFAARLGHRLAAVVSNDAQSLSTQNDTLVAKHMVYGGLAFSDETLTTPYCVVTASTGAFDVASETQATGTAQKVAWIAPSQSIICQSIQ | failed
6 | MSQLEKAQAEYAGFIQEFQSAIISTISEQGIPNGSYAPFVIDDAKNIYIYVSGLAVHTKNIEANPLVNVLFVDDEAKTNQIFARRRLSFDCTATLIERESQKWNQVVDQFQERFGQIIEVLRGLADFRIFQLTPKEGRFVIGFGA | not failed
7 | MSQNLQPPIPLLVPETAPFSEEQRAWLNGFFAGLVSLDGQGVTALSPDQAAALLAGGPAPVAEDDDGGAPWHDQSLPIGERMQLAEGKPLRWKLMAAMAQQDCGQCGYDCRNYSGAIFDGQETRLNLCAPGGKDTARMVKTLTEQIGAAPTLDNAPSLAADAAPVVALPPRGTSRDNPATAKVLSRKRLNKPGSEKETWHVEFELEDCLSYEAGDSFGLFPTNDPALVDAVLHALGAPAEFPIAQSTLRQTLLDSVSLSPAPDMLFQLISYITGGDKRKKARSLASGEDPDGDAATLDVLAALEKFPGLRPDPEAFIEALDPLQPRLYSISSSPKTTPGRLSLTVDCVRYAIGKRQRLGVCSTGLAERVRPGETLRAYVQKAHHFALPSDPNQPIIMIGPGTGIAPFRAFLHERQAIQAPGKNWLFFGHQRSASDFFYEDELKAMKTAGHLTRLTLAWSRDSGEKIYVQDRIREVGRDLWSWLAEGASLYVCGDAKRMAKDVERALVDIVAQHGARSAAEATAFVSELKKQGRYQQDVY | failed
8 | MSQPEPRAGENRALRAFAPDAGLFLLKPWIGGLALLADWGLIAAAFACAALWPHPVIYLLAALLIARSQLALAVLMHESAHGLLLRGQKANDRLGQWLAAGPLFLSLCTYRAGHLKHHLHPMEHDDPVVAVFGLGDYPLPRGKLALRLLADLCGVGYFISALRFARGDYRAIMPRVDKSPRQALAQVLSMLVSNGLLFGLLAWSGHPWLYLGLWLLPAITLLPLLGRVRAIMEHAGLPVAADQSRNARSIVRPSVQTFLFGPHAIHYHIEHHLYVRVPFYHLGGLHRQLATAQLLPEGNLYQGYGGVLRDVSDPDWRSSAR | failed
9 | MSQQAARKLEKADIEAIFARSRFISAMNLEILDIDHAGSRFSVRMPLQDTYERGAPGTKQFHGGALAALIDVVGDFAIGMLVGGGVPTMNLRIDYLRPAVGDYVDGVAVVRKAGKSAAVVDIDILCPAGKLVAIGRGTYVPITG | failed
10 | MSQQFPDWQPQGLENNLLKLVPLAKADFDTLFEVASDPLIWEQHPTKDRYKKEVFQLFFDGALGGNTAFIIIDKATGRIIGSTRYYDYKPEQASIAIGYTFLNRDYWGGRYNRSAKKLLLDYAFHYVDTVYFHIGANNLRSQKAILNIGATKVGEVDFDYYGKKVLHYEYAITKADWLHTLKQQL | failed
11 | MSQRLILFSRYPEPGRSKTRLIPALGPEGAADLQRQLTEWTVFTAHCWQARSPQTEVLIATSGGTSEAWQQWLGAVEVQPQAEGDLGDRLHQAFQDSWQVGCDRTVIIGSDCPQIEPHHLDEAFAVLQQADVVIGPASDGGYWLIGLSQPQPQLFQNIDWGSDRVLVQTLEAAQVADLQVAQLESLSDLDRPEDLNLWQPQPQLSVIITTLNEAANLPQTLALIGDAPVETLVVDGGSQDATVAIAQAWGAKVIHSPAGRGRQFNQGAAAAHGNILLFLHGDTRLPPRFWEHVLQTLQPPQVVAGAFQLQIDSPDWRLRWIERGVRWRSHWLQQPYGDQALFLSRDRWRAIGGFSTGPLLEDYRFVRQLRRQGTIAIASAAVMTSARRWQRRGVLQTTLLNQLILLAHHCGVSDQQLARWYR | failed
12 | MSQSLIAALQNPALFPHPVESFQVIETHISWVLLTGPYAYKFKKPMNFGFLDFTTLALREHFCQEELRLNKRLTDDMYLEVLPITGTAQAPQLGGDGDVIEYALKMKQFSQDGLLSTLQANGELTTAHIDELARQIADFHLDSPHVTAESELGSPDSVMAPVVQNFEQIRPLISEKSDLEQLDALQAWAESSFERLKPLLAQRKADGFIRECHGDIHLGNATVIDGKVVLFDCIEFNEPFRKTDVYADIGFLAMDLEDRGLKSLSRRLVSQYLEVTGDYVGLELLNFYKAYRAMVRAKVALFSQPADADGVQRAATLRQYRNYANLAESYSAIPSRFLTITHGVSAVGKSHVAMRLVESLGAIRLRSDIERKRLFAEGGEDLYGDEASSATYARLHELAGKTLRAGFSVVIDATYLKREQRDAAAKVAENTGVPFLILDCEAPQAVIASWLAQRQAQNNDPSDATLQVIEAQQASRELLSADEVLCSKKVATNIGSDLDSLVDNLRQRLPGLLEHHHHHH | not failed
13 | MSRASVTIGARRNGAIKAAAHARIRPVANSSCLAISRQMQHRYTMFEPKPQNPALAAALIFAATAFIAGTTLLAKALGTGALGPALPALQISHGRFLFALAVILSIVAATRPRLSRPHWGLHLGRTSFGWAGVTLMFAAVAYIPMADATAIAFLNPVFGMLLAIPLLGERVGPWRWGAAVIALVGALILLRPTPGSFQPAALLALAAAAVMGMELIFIKKLAGRERPIQILLVNNAMGLAIASLAVWPVWQAPLPAQWAALAGIGLLMACAQICFVNGMARADASFVAPFSYGTLVFAALYDLAVFQVWPDAISLGGAAIILTGALTLAWREGRVRRP | failed
14 | MSRELKLRIVSAIVMAAVILAATWYGGILFRIVAGLLAILIYYEWSTITRMSETNSTGNAWGWFAVAVIAGNTIFGESSLDLPLLSGFTLTAALFPVLRGKNWWLVGGIFYAGLSGISLAAIRGDELAGFASILFIFAVVWSTDILAYFVGRAIGGPKLAPSISPGKTWSGAVGGAVAAVIGGAAVSMAYHGRISLLLVGLALVLSVFSQIGDLFESFVKRRFQVKDSSHLIPGHGGFMDRVDGLVFACFTVFLIAFVHAAATGDVPGSGGGLLPGF | failed
15 | MSRGGFCQTYFAVDECQSPPVPYVVQKLHDNEQLLDSFQQKAQYIEQLSQNSQLPTLLAYFRDQDNYYFVQEFIAGASLAQVVQEEGAFHETQVWQLLTNLLPILKLMSDRQLIHGDIKPENIIRQLTPDSTNLVLVDFGHVQIVSRTDQITDVQGVGSPEYAAPEQITGQAVFASDLYSLGVTCIHLLTLVSPFDLFDIANDCWVWQQYLTTKISDRLTKILNKLIQKSVHQRFQSADEVMQVMGIEGKILHYPPPPSPWQCLHTLTGYSTNSLAISPDGNKLASGGDDKIIRLWELNTQKLLACFSGHSQAVTSVSFSPQGEILATASDDKTIKLWHLPTSSEVFTLNGHTNPVKSVSFSPNGQILASGSWDKQVKLWDVTTGKEIYALKAHQLQVSAVAFSPQGEILASASFDRTIRLWQITQNHPRYTLIKTLSGHTRAVLAIAFSPDGKILATGSDDNTIKLWDINTGQLIATLLGHSWSVVAVTFTADNKTLISASWDKTIKLWKVSTTEEIVTLASHLDSVCAVAVNPVTQVIASSSRDKTIKLWQLVIQQN | failed
16 | MSRISVVIPAYNEASDLPQTIQGIRDLSLECEVIVVDDGSVDDTKKIAERLADITVALPVNQGKGQALMEGWKRAEGTHIVMLDADLGSTSSEMAHLLPPLLTNEADLVIGMLPTHSSKKGFGLVKKRAQQYIAKRTGAFLTAPLSGQRAFHRRWLPSLLEENVQGFGVETQMLLHFLLRGAVVKEIPTLMAHRYTGKTISGFIHRFQQWIDIERALRGSNTLEHHHHHH | not failed
17 | MSRMRVLRLRLYGVVFLAVLALLLSLSVAVYQQVFTPAVRIKLEADSLGNQLDPRADVKLRGLLVGEVRAVHADGTKATLDIALKPEYVASIPSDAHARLLPKTLFGEKYVDLVAPARSSARPIRAGDVITQDRTRVGIELQQLMNDLLPLLRTVQPGKLNATLSAFATALEGRGDRIGDNLTRVEDYLHRLNPHLPSLTEDFARLADVAEVYGDAAPDLMEILRNTVTTSRTLVEQRDRLASALTTTATAAGTADDFLDANGDRLITLGRVSRPTLDLFARYSPEYPCLFAGLVREEQASEQAFRGGKMHITLEVVRQQGAYEPGEYPRYDDRSGPNCRDLPHPPVPAPGVHLNDGSTKGSASGGPGGVSATRAEQRSVGSLVAPVLGVPADQVPPVATLLFGPMARGTAVSVA | failed
18 | MSRPDQAARRRAIAAELHVSPTFDARDEAERRIGFVADYLRTAGLRACVLGISGGIDSSTAGRLAQLAVERLRASGYDARFVAMRLPYGAQHDEADARRALAFVRADETLTVDVKPAADAMLAALAAGGLAYLDHAQQDFVLGNIKARERMIAQYAVAGARNGVVIGTDHAAESVMGFFTKFGDGGADVLPLAGLTKRRVRALARMLGADEPLVLKTPTADLETLRPQRPDEHAYGITYEQIDDFLEGKPMDDAVAETVLRFYDATRHKRALPYTMFDWPGHPA | not failed
19 | MSRPEGHTLRRRLAGVVFVLVPALLIWLAVAVYDKKFTDSDPVVVETGSAGNQMHPGAEVKLRGVVVGEVRAIDATGDGARLTLAMKPGALDDVPSDVRAQMLPTTLFGERFVALVPPANPSPEPLAAGAVVPQDRSANAIELQQVLDDVLPMLTAVQPQKLSATLSAVSQALEGRGERLGDTLTLLDEHLAEFNPNLPALNRDLKELVKVSHVYADAAPDVITALTDFTTTSGTLAEQEADLAATLGATTRTAEDVTAFLHKNKDNIIRLGDTSRPTLELLAEYSPAFPCTLRTLAEFVPAMDKALGKGTDRPGIHVDVTSVASRGAYRPGRDTPVYDSGGGPRCPSVPYLGALPRPTARTAAPAAEQDLGPANSPQENDLVNELLAPAAGKSPGDLPDWSSLLVGPVYRGTEVTLGLEHHHHHH | failed
